# Test results taken from paper PMC10120734.
# Biological target: free UbcH8 (Ube2L6), GST tag removed (human)
# Assay: SAXS
substance,measurement,value
"free UbcH8 (Ube2L6), GST tag removed (enzyme)",stoichiometry N,2
